This note sets out measurements from PMC5502743.

Read-outs that look alike come from different tables or passages of the source.

What all share (assay): single-molecule FRET imaging
Test [1] addresses Cy3B*/Cy7*-labeled β2Δ6-148C/266C (full-length, minimal cysteine β2 adrenergic receptor mutant) (UniProt P07550).
For test [2] the target is unchanged. This is another data set of the same source.
Test [3] shares this target. The source holds these as a separate data set.
Test [4] has the same target. This is another data set of the same source.
For test [5] the target is unchanged. The source holds these as a separate data set.
Test [6] has the same target. This is another data set of the same source.

Take “Gs heterotrimer (Gαs, Gβ and Gγ) (from UniProt P63092 1-394; P62873 1-340; P59768 1-71) (complex)”: the k (high→low) (transition rate from high- to low-FRET states) stood at 0.7 s⁻¹ in test [1]; 0.7 s⁻¹ in test [2]; 0.4 s⁻¹ in test [3]; 0.7 s⁻¹ in test [4]; 0.6 s⁻¹ in test [5]; 1.1 s⁻¹ in test [6]. The percent Gs coupling in test [5] is 5 to 20%.
